Data reported in US20240358849A1 (SUZHOU FUSE BIOSCIENCES, published 2024).

T1: IL-2hex, mutant human IL-2 (deltaA1/T3A/F42A/Y45A/L72G/C125S) (human, UniProt P60568 22-153)
T1 chain: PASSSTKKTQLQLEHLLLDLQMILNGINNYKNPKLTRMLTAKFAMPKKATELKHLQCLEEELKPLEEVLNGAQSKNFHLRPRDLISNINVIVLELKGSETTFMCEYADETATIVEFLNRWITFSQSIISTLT


Assays:
[1] = biological target: T2, human Fibroblast Activation Protein (FAP), soluble antigen (human, UniProt Q12884 26-760, biotinylated when immobilized on streptavidin sensors); experiment: BLI per 6.1.3, human FAP;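 note: biolayer interferometry with immobilized antigen on sensors, antibody association up to 240 s then dissociation up to 420 s, reference-subtracted, global 1:1 fit with unlinked Rmax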
T2 construct: also called hFAP; biotinylated FAP

[2] = biological target: human FAP expressed on cells (HEK 293T-hFAP-E5; ExpiCHO-hFAP) (human, UniProt Q12884 1-760); experiment: cell-based or functional assay
[3] = biological target: T1, IL-2hex, mutant human IL-2 …; experiment: cell-based or functional assay
[4] = biological target: T1, IL-2hex, mutant human IL-2 …; experiment: Affinity (nM), Table 13B
[5] = biological target: T1, IL-2hex, mutant human IL-2 …; experiment: BLI per 6.1.3; column head IL-2 KD
[6] = biological target: T2, human Fibroblast Activation Protein …; experiment: Affinity (nM), Table 13B
[7] = biological target: T2, human Fibroblast Activation Protein …; experiment: BLI per 6.1.3

Row | Binder | Kd [1] [nM] | koff [1] [s⁻¹] | kon [1] [M⁻¹ s⁻¹] | EC50 of HEK-Blue IL2 assay (pM) with HEK 293T-hFAP-E5; variant as masking moiety of a configuration 3 immunoconjugate [2] [pM] | EC50 of HEK-Blue IL2 assay (pM) with HEK 293T; variant as masking moiety of a configuration 3 immunoconjugate [3] [pM] | Kd [4] [nM] | Kd [5] [nM] | Kd [6] [nM] | Kd [7] [nM]
1 | 872-5 VH Q96L (antibody, V domains shown) VH: EVQLVESGGGLVQPGGSLRLSCAASGFTFRGYIMSWVRQAPGKGLEWVSWISPEGSRTGYADSVKGRFTISRDNSKNTLYLQMNSLRAEDTAVYYCARLLYGTWFDYWGQGTLVTVSS VL: DIQMTQSPSSLSASVGDRVTITCRASQSISSYLNWYQQKPGKAPKLLIYAASSLQSGVPSRFSGSGSGTDFTLTISSLQPEDFATYYCQQATLLLPTFGQGTKVEIKR | 1.5 | 0.000794 | 542000 | – | – | – | – | – | –
2 | 872-5 VH S52G (antibody, V domains shown, BLI per 6.1.3) VH: EVQLVESGGGLVQPGGSLRLSCAASGFTFRGYIMSWVRQAPGKGLEWVSWIGPEGSRTGYADSVKGRFTISRDNSKNTLYLQMNSLRAEDTAVYYCARLQYGTWFDYWGQGTLVTVSS VL: DIQMTQSPSSLSASVGDRVTITCRASQSISSYLNWYQQKPGKAPKLLIYAASSLQSGVPSRFSGSGSGTDFTLTISSLQPEDFATYYCQQATLLLPTFGQGTKVEIKR | 2.2 | 0.00138 | 642000 | – | – | – | – | – | –
3 | 872-5 VH Q96L:VL A91G/T92R (antibody, V domains shown, BLI per 6.1.3) VH: EVQLVESGGGLVQPGGSLRLSCAASGFTFRGYIMSWVRQAPGKGLEWVSWISPEGSRTGYADSVKGRFTISRDNSKNTLYLQMNSLRAEDTAVYYCARLLYGTWFDYWGQGTLVTVSS VL: DIQMTQSPSSLSASVGDRVTITCRASQSISSYLNWYQQKPGKAPKLLIYAASSLQSGVPSRFSGSGSGTDFTLTISSLQPEDFATYYCQQGRLLLPTFGQGTKVEIKR | 0.707 | 0.000571 | 812000 | – | – | – | – | – | –
4 | anti-IL-2/anti-FAP two-in-one antibody D029 (bispecific antibody, V domains shown) VH: EVQLVESGGGLVQPGGSLRLSCAASGFTFTWSFMSWVRQAPGKGLEWVSWIGPSGSYTDYADSVKGRFTISRDNSKNTLYLQMNSLRAEDTAVYYCARSQYGRYYSPDYYFDYWGQGTLVTVSS VL: DIQMTQSPSSLSASVGDRVTITCRASQDGGNYLNWYQQKPGKAPKLLIYGASTLYSGVPSRFSGSGSGTDFTLTISSLQPEDFATYYCQQGRTPPLTFGQGTKVEIKR | – | – | – | 56 | 1510 | 431 | 431 | – | –
5 | D029HV4LV2 (bispecific antibody, V domains shown, also called Rev1-Q27G/P94Y/L96F:H1V9) VH: EVQLVESGGGLVQPGGSLRLSCAASGFTFSRFFMSWVRQAPGKGLEWVSWIGPSGLYTDYADSVKGRFTISRDNSKNTLYLQMNSLRAEDTAVYYCARSQYGRYYSPDYYFDYWGQGTLVTVSS VL: DIQMTQSPSSLSASVGDRVTITCRASGALGFYLNWYQQKPGKAPKLLIYAASSLSSGVPSRFSGSGSGTDFTLTISSLQPEDFATYYCQQGRTYPFTFGQGTKVEIKR | – | – | – | 40 | 6100 | 4500 | – | 0.51 | –
6 | D029HV6LV2 (bispecific antibody, V domains shown, also called Rev1-Q27G:P94Y:L96F/S55L:S32A) VH: EVQLVESGGGLVQPGGSLRLSCAASGFTFTWAFMSWVRQAPGKGLEWVSWIGPSGLYTDYADSVKGRFTISRDNSKNTLYLQMNSLRAEDTAVYYCARSQYGRYYSPDYYFDYWGQGTLVTVSS VL: DIQMTQSPSSLSASVGDRVTITCRASGALGFYLNWYQQKPGKAPKLLIYAASSLSSGVPSRFSGSGSGTDFTLTISSLQPEDFATYYCQQGRTYPFTFGQGTKVEIKR | – | – | – | 145 | 4820 | 199 | – | 62 | –
7 | D029 HV3LV1 (bispecific antibody, V domains shown, also called D029L-Rev1/S55L:T30R:S32F; Rev1/S55L:T30R:S32F) VH: EVQLVESGGGLVQPGGSLRLSCAASGFTFRWFFMSWVRQAPGKGLEWVSWIGPSGLYTDYADSVKGRFTISRDNSKNTLYLQMNSLRAEDTAVYYCARSQYGRYYSPDYYFDYWGQGTLVTVSS VL: DIQMTQSPSSLSASVGDRVTITCRASQALGFYLNWYQQKPGKAPKLLIYAASSLSSGVPSRFSGSGSGTDFTLTISSLQPEDFATYYCQQGRTPPLTFGQGTKVEIKR | – | – | – | 35 | 7380 | 237 | 427 | – | 1.79

Results, then the binder that gave them:

Row | Kd [1] [nM] | koff [1] [s⁻¹] | kon [1] [M⁻¹ s⁻¹] | EC50 of HEK-Blue IL2 assay (pM) with HEK 293T-hFAP-E5; variant as masking moiety of a configuration 3 immunoconjugate [2] [pM] | EC50 of HEK-Blue IL2 assay (pM) with HEK 293T; variant as masking moiety of a configuration 3 immunoconjugate [3] [pM] | Kd [4] [nM] | Kd [5] [nM] | Kd [6] [nM] | Kd [7] [nM] | Binder
8 | 2.2 | 0.00148 | 673000 | – | – | – | – | – | – | 872-5 VH S52G:VL A91G/T92R (antibody, V domains shown, BLI per 6.1.3) VH: EVQLVESGGGLVQPGGSLRLSCAASGFTFRGYIMSWVRQAPGKGLEWVSWIGPEGSRTGYADSVKGRFTISRDNSKNTLYLQMNSLRAEDTAVYYCARLQYGTWFDYWGQGTLVTVSS VL: DIQMTQSPSSLSASVGDRVTITCRASQSISSYLNWYQQKPGKAPKLLIYAASSLQSGVPSRFSGSGSGTDFTLTISSLQPEDFATYYCQQGRLLLPTFGQGTKVEIK
9 | 0.087 | 7.61e-05 | 878000 | – | – | – | – | – | – | 872-5 VH S52G/Q96L/VL T92R (antibody, V domains shown, BLI per 6.1.3) VH: EVQLVESGGGLVQPGGSLRLSCAASGFTFRGYIMSWVRQAPGKGLEWVSWIGPEGSRTGYADSVKGRFTISRDNSKNTLYLQMNSLRAEDTAVYYCARLLYGTWFDYWGQGTLVTVSS VL: DIQMTQSPSSLSASVGDRVTITCRASQSISSYLNWYQQKPGKAPKLLIYAASSLQSGVPSRFSGSGSGTDFTLTISSLQPEDFATYYCQQARLLLPTFGQGTKVEIKR
10 | 0.251 | 0.000161 | 645000 | – | – | – | – | – | – | 872-5 VH S52G/Q96L (antibody, V domains shown, BLI per 6.1.3) VH: EVQLVESGGGLVQPGGSLRLSCAASGFTFRGYIMSWVRQAPGKGLEWVSWIGPEGSRTGYADSVKGRFTISRDNSKNTLYLQMNSLRAEDTAVYYCARLLYGTWFDYWGQGTLVTVSS VL: DIQMTQSPSSLSASVGDRVTITCRASQSISSYLNWYQQKPGKAPKLLIYAASSLQSGVPSRFSGSGSGTDFTLTISSLQPEDFATYYCQQATLLLPTFGQGTKVEIKR
11 | 0.78 | 0.00102 | 1.3e+06 | – | – | – | – | – | – | 872-5 VL A91G (antibody, V domains shown, BLI per 6.1.3 (monovalent Fab-Fc)) VH: EVQLVESGGGLVQPGGSLRLSCAASGFTFRGYIMSWVRQAPGKGLEWVSWISPEGSRTGYADSVKGRFTISRDNSKNTLYLQMNSLRAEDTAVYYCARLQYGTWFDYWGQGTLVTVSS VL: DIQMTQSPSSLSASVGDRVTITCRASQSISSYLNWYQQKPGKAPKLLIYAASSLQSGVPSRFSGSGSGTDFTLTISSLQPEDFATYYCQQGTLLLPTFGQGTKVEIKR
12 | 0.398 | 0.000411 | 1.03e+06 | – | – | – | – | – | – | 872-5 VL A91G/T92R (antibody, V domains shown, BLI per 6.1.3) VH: EVQLVESGGGLVQPGGSLRLSCAASGFTFRGYIMSWVRQAPGKGLEWVSWISPEGSRTGYADSVKGRFTISRDNSKNTLYLQMNSLRAEDTAVYYCARLQYGTWFDYWGQGTLVTVSS VL: DIQMTQSPSSLSASVGDRVTITCRASQSISSYLNWYQQKPGKAPKLLIYAASSLQSGVPSRFSGSGSGTDFTLTISSLQPEDFATYYCQQGRLLLPTFGQGTKVEIKR
13 | 0.241 | 0.000178 | 737000 | – | – | – | – | – | – | 872-5 VH S52G/Q96L:VL A91G/T92R (antibody, V domains shown, BLI per 6.1.3) VH: EVQLVESGGGLVQPGGSLRLSCAASGFTFRGYIMSWVRQAPGKGLEWVSWIGPEGSRTGYADSVKGRFTISRDNSKNTLYLQMNSLRAEDTAVYYCARLLYGTWFDYWGQGTLVTVSS VL: DIQMTQSPSSLSASVGDRVTITCRASQSISSYLNWYQQKPGKAPKLLIYAASSLQSGVPSRFSGSGSGTDFTLTISSLQPEDFATYYCQQGRLLLPTFGQGTKVEIKR
14 | 1.6 | 0.001 | 614000 | – | – | – | – | – | – | 872-5 VL T92R (antibody, V domains shown, BLI per 6.1.3) VH: EVQLVESGGGLVQPGGSLRLSCAASGFTFRGYIMSWVRQAPGKGLEWVSWISPEGSRTGYADSVKGRFTISRDNSKNTLYLQMNSLRAEDTAVYYCARLQYGTWFDYWGQGTLVTVSS VL: DIQMTQSPSSLSASVGDRVTITCRASQSISSYLNWYQQKPGKAPKLLIYAASSLQSGVPSRFSGSGSGTDFTLTISSLQPEDFATYYCQQARLLLPTFGQGTKVEIKR
15 | – | – | – | 57 | 9370 | 600 | – | 0.51 | – | Rev1-Q27G/P94Y/L96F:H1V11 (bispecific antibody, V domains shown, H1V11 = D029 VH with W31Y:S32F:S55L; also called H1V11 with D029LV2) VH: EVQLVESGGGLVQPGGSLRLSCAASGFTFTYFFMSWVRQAPGKGLEWVSWIGPSGLYTDYADSVKGRFTISRDNSKNTLYLQMNSLRAEDTAVYYCARSQYGRYYSPDYYFDYWGQGTLVTVSS VL: DIQMTQSPSSLSASVGDRVTITCRASGALGFYLNWYQQKPGKAPKLLIYAASSLSSGVPSRFSGSGSGTDFTLTISSLQPEDFATYYCQQGRTYPFTFGQGTKVEIKR
16 | – | – | – | 117 | 14800 | 700 | – | 10 | – | Rev1-Q27G/P94Y/L96F:H1V10 (bispecific antibody, V domains shown, H1V10 = D029 VH with T30S:W31R:S55L; also called H1V10 with D029LV2) VH: EVQLVESGGGLVQPGGSLRLSCAASGFTFSRSFMSWVRQAPGKGLEWVSWIGPSGLYTDYADSVKGRFTISRDNSKNTLYLQMNSLRAEDTAVYYCARSQYGRYYSPDYYFDYWGQGTLVTVSS VL: DIQMTQSPSSLSASVGDRVTITCRASGALGFYLNWYQQKPGKAPKLLIYAASSLSSGVPSRFSGSGSGTDFTLTISSLQPEDFATYYCQQGRTYPFTFGQGTKVEIKR
